B1: Aurora kinase A (Homo sapiens), O14965 (parent)
chain: MDRSKENCISGPVKATAPVGGPKRVLVTQQFPCQNPLPVNSGQAQRVLCPSNSSQRIPLQAQKLVSSHKPVQNQKQKQLQATSVPHPVSRPLNNTQKSKQPLPSAPENNPEEELASKQKNEESKKRQWALEDFEIGRPLGKGKFGNVYLAREKQSKFILALKVLFKAQLEKAGVEHQLRREVEIQSHLRHPNILRLYGYFHDATRVYLILEYAPLGTVYRELQKLSKFDEQRTATYITELANALSYCHSKRVIHRDIKPENLLLGSAGELKIADFGWSVHAPSSRRTTLCGTLDYLPPEMIEGRMHDEKVDLWSLGVLCYEFLVGKPPFEANTYQETYKRISRVEFTFPDFVTEGARDLISRLLKHNPSQRPMLREVLEHPWITANSSKPSNCQNKESASKQS

Variants of: B1
Settings: with plk1_human PLK1, P53350
Chain of plk1_human PLK1, P53350 (P53350 whole entry): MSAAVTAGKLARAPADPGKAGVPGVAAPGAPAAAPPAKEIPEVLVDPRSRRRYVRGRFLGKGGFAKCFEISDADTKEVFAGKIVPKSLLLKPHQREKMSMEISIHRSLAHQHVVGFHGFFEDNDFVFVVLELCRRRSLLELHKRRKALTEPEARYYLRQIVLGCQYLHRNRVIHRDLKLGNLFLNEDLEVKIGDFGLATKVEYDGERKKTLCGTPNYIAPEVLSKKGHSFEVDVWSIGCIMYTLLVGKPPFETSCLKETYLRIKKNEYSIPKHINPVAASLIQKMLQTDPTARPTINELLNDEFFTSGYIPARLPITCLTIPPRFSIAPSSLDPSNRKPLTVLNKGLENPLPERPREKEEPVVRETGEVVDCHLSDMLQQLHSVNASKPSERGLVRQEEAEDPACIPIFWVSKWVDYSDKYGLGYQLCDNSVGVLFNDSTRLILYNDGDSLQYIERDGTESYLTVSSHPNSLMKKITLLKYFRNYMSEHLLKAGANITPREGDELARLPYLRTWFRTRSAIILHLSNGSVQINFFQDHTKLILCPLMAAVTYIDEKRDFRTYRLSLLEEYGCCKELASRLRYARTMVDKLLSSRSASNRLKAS

| Variant | effect of a mutation on the interaction |
| --- | --- |
| K162R | disrupting interaction |
